Key:
[1] = target: T1, PD-L1 on the surface of CHO-PD-L1 cells (UniProt Q9NZQ7 19-290, limits assumed); assay: flow cytometry (FACS) on CHO-PD-L1 cells, anti-human IgG PE detection
T1 construct: whole, on cells; also called CHO cell line stably transfected with PD-L1; PD-L1 target on the cell surface

[2] = target: T2, Human PD-L1 recombinant protein (Sino Biological, Cat.10084-H05H) (human, UniProt Q9NZQ7 19-239); assay: competitive ELISA: human PD-L1 coated, antibody titrated against human PD-1-His (competitor), anti-His-HRP detection
T2 construct: also called human PD-L1 protein; PD-L1 protein
Procedure: Human PD-L1 recombinant protein (Sino Biological, Cat.10084-H05H) was diluted with carbonate buffer and added to 96-well ELISA plate at a final concentration of 1 μg/ml. […] The competitive binding curve of the tested antibody could be drawn by matching the antibody concentration to the OD value, and the IC50 value could be calculated.

[3] = target: T3, cynomolgus monkey PD-L1-His protein (Sino Biological, Cat. 90251-C08H) (cynomolgus monkey, UniProt G7PSE7 19-239); assay: SPR (Biacore T200), antibody captured on the chip, PD-L1-His injected, 1:1 model, 25 C
T3 construct: Bought reagent; also called cynomolgus PD-L1 recombinant protein; not shown: His tag

[4] = target: T4, recombinant human PD-L1-His protein (Novoprotein, Cat. 315) (human, UniProt Q9NZQ7 19-239); assay: as above
T4 construct: Bought reagent; also called human PD-L1 recombinant protein; not shown: His tag

[5] = target: T1, PD-L1 on the surface of CHO-PD-L1 cells; assay: cell-based or functional assay

T1 sequence (Q9NZQ7 19-290 limits assumed): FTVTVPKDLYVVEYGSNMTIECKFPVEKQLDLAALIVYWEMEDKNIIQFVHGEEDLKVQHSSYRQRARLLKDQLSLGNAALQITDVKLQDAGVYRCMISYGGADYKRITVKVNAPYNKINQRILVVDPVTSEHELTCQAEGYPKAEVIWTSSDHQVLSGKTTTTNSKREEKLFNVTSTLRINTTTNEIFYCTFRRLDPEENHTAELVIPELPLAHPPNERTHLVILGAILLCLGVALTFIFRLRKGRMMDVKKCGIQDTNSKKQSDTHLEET
T4 sequence (Q9NZQ7 19-239 limits assumed): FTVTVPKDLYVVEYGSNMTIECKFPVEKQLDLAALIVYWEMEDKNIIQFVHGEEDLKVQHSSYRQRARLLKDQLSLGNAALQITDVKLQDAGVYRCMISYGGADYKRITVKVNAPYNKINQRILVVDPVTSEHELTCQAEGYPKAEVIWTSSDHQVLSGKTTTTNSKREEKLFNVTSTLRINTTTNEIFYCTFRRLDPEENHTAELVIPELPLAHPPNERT
T2 sequence (Q9NZQ7 19-239 limits assumed): as above
T3 sequence (G7PSE7 entry or part of it C08H C08H): as the sequence (Q9NZQ7 19-239 limits assumed) above, with A33T, A34S, S62N, R68Q, Q82R, F173L, T185A, T192I, H215L counted along it

B1: 794-h1-71 (antibody, human IgG1, kappa, V domains shown)
VH: QVQLQQSGPGLVKPSQTLSLTCAVSGDSITSGYWNWIRKFPSRGLEYMGYISYSGSTYYNPFLKSRISINRDTSKNQYYLQLNSVTPEDTAVYYCAKMGDWLAWFAYWGQGTLVTVSS
VL: EIVMTQSPPTLSLSPGERVTLSCKSSQSLLYSSNQKNSLAWYQQKPGQAPRLLIYWASTRESGIPARFSGSGSGTDFTLTISSLQPEDFAVYYCQQYYGYPYTFGQGTKLEIKR
notes: also called humanized PD-L1 antibody
**Q.** For B1, which EC50 [1] is on record?
**A.** 0.0384 µg/mL

**Q.** And the IC50 [2]?
**A.** 849 pM

**Q.** And the Kd [3]?
**A.** 937 pM

**Q.** What about the Kd [4] of the same binder?
**A.** 1790 pM

**Q.** And the “EC50 of NFAT-controlled luminescent reporter signal (RLU), Jurkat-PD-1 cells co-incubated with CHO-PD-L1 cells” value [5]?
**A.** 0.166 µg/mL
